Reference: PMC4137731, “C-Terminal Domain Swapping of SSB Changes the Size of the ssDNA Binding Site”

Assays:
Conditions in all cases: protein: recombinant; tags: none (untagged); chain copies: 4; label: 5' 32P
PaSSB [1] = target: T1, PaSSB (Pseudomonas aeruginosa PAO1, UniProt P40947 1-165); experiment: EMSA; monomer conc.; 1 complex; 20 mM Tris-HCl pH 8.0, 100 mM NaCl, 25°C 30 min, 1.7 nM DNA, protein 0-5000 nM; native 8% PAGE in TBE at 4°C
KpSSB [2] = target: T2, KpSSB (Klebsiella pneumoniae subsp. pneumoniae …, UniProt A6TGW7 1-174); experiment: as above
StSSB [3] = target: T3, StSSB (Salmonella enterica serovar Typhimurium …, UniProt P0A2F6 1-176); experiment: EMSA; monomer conc.; 2 complexes; 20 mM Tris-HCl pH 8.0, 100 mM NaCl, 25°C 30 min, 1.7 nM DNA, protein 0-5000 nM; native 8% PAGE in TBE at 4°C
KpSSB [4] = target: T2, KpSSB; experiment: as above
PaSSB [5] = target: T1, PaSSB; experiment: as above
KpSSB [6] = target: T2, KpSSB; experiment: EMSA; no band shift up to 5000 nM; 20 mM Tris-HCl pH 8.0, 100 mM NaCl, 25°C 30 min, 1.7 nM DNA, protein 0-5000 nM; native 8% PAGE in TBE at 4°C
StSSB [7] = target: T3, StSSB; experiment: EMSA; monomer conc.; 1 complex; 20 mM Tris-HCl pH 8.0, 100 mM NaCl, 25°C 30 min, 1.7 nM DNA, protein 0-5000 nM; native 8% PAGE in TBE at 4°C

Binder	apparent K (half saturation) (PaSSB [1]) [nM]	apparent K (half saturation) (KpSSB [2]) [nM]	apparent K (half saturation) (StSSB [7]) [nM]	also measured
TTTTTTTTTTTTTTTTTTTTTTTTT (ssDNA) [dT25]	1700 ± 250	200 ± 20	–	–
TTTTTTTTTTTTTTTTTTTTTTTTTTTTTTTTTTT (ssDNA) [dT35]	950 ± 180	220 ± 30	–	–
TTTTTTTTTTTTTTTTTTTTTTTTTTTTTTTTTTTTTTTTTTTTT (ssDNA) [dT45]	780 ± 160	100 ± 10	–	apparent K (half saturation) (StSSB [3]): 440 ± 60 nM
TTTTTTTTTTTTTTTTTTTTTTTTTTTTTTTTTTTTTTTTTTTTTTTTTT (ssDNA) [dT50]	–	110 ± 20	–	apparent K (half saturation) (StSSB [3]): 440 ± 50 nM
dT55 (ssDNA) DNA: TTTTTTTTTTTTTTTTTTTTTTTTTTTTTTTTTTTTTTTTTTTTTTTTTTTTTTT	820 ± 90	–	–	apparent K (half saturation) (KpSSB [4]): 100 ± 20 nM
dT60 (ssDNA) DNA: TTTTTTTTTTTTTTTTTTTTTTTTTTTTTTTTTTTTTTTTTTTTTTTTTTTTTTTTTTTT	–	–	–	apparent K (half saturation) (PaSSB [5]): 810 ± 110 nM; apparent K (half saturation) (KpSSB [4]): 100 ± 10 nM
dT65 (ssDNA) DNA: TTTTTTTTTTTTTTTTTTTTTTTTTTTTTTTTTTTTTTTTTTTTTTTTTTTTTTTTTTTTTTTTT	–	–	–	apparent K (half saturation) (PaSSB [5]): 550 ± 70 nM
TTTTTTTTTTTTTTTTTTTT (ssDNA) [dT20]	–	–	450 ± 80	binding result (KpSSB [6]): no binding
TTTTTTTTTTTTTTT (ssDNA) [dT15]	–	–	650 ± 120	–
TTTTTTTTTTTTTTTTTTTTTTTTTTTTTT (ssDNA) [dT30]	–	–	420 ± 60	–
TTTTTTTTTTTTTTTTTTTTTTTTTTTTTTTTTTTTTTTT (ssDNA) [dT40]	–	–	420 ± 80	–
